Substitutions are numbered along the chain they refer to. Names may count otherwise.
Key:
Experiment in all cases: cell-based or functional assay
[1] = molecular target: envelope glycoprotein of HIV-1 Case C 7/86 (HIV-1 Case C 7/86)
[2] = molecular target: envelope glycoprotein of HIV-1 JFRL (HIV-1 JFRL)
[3] = molecular target: envelope glycoprotein of HIV-1 NL4-3 (HIV-1 NL4-3)
[4] = molecular target: envelope glycoprotein of HIV-1 BZ162 (HIV-1 BZ162)
[5] = molecular target: envelope glycoprotein of HIV-1 94ZW103 (HIV-1 94ZW103)
[6] = molecular target: envelope glycoprotein of HIV-1 CM.235 (HIV-1 CM.235)
[7] = molecular target: envelope glycoprotein of HIV-1 DJ258 (HIV-1 DJ258)
[8] = molecular target: envelope glycoprotein of HIV-1 UG270 (HIV-1 UG270)

B1: C52F peptide (peptide)
peptide: NHTTWMEWDREINNYTSLIHSLIEESQNLQEKNEQELLELDKWASLWNWFNIKIK
[1]
  IC50 (nM), Human PBMC Infectivity Assays: 49 nM
[2]
  IC50 (nM), Human PBMC Infectivity Assays: 5 nM
[3]
  IC50 (nM), Human PBMC Infectivity Assays: 23 nM
[4]
  IC50 (nM), Human PBMC Infectivity Assays: 2 nM
[5]
  IC50 (nM), Human PBMC Infectivity Assays: 4 nM
[6]
  IC50 (nM), Human PBMC Infectivity Assays: 11 nM
[7]
  IC50 (nM), Human PBMC Infectivity Assays: 9 nM
[8]
  IC50 (nM), Human PBMC Infectivity Assays: 68 nM

B2: C52L peptide (peptide)
peptide: B1 peptide with I23F, N33A, L38F
[1]
  IC50 (nM), Human PBMC Infectivity Assays: 17 nM
[2]
  IC50 (nM), Human PBMC Infectivity Assays: 6 nM
[3]
  IC50 (nM), Human PBMC Infectivity Assays: 20 nM
[4]
  IC50 (nM), Human PBMC Infectivity Assays: 3 nM
[5]
  IC50 (nM), Human PBMC Infectivity Assays: 3 nM
[7]
  IC50 (nM), Human PBMC Infectivity Assays: 11 nM
[8]
  IC50 (nM), Human PBMC Infectivity Assays: 61 nM
